In series [1] the test system is HT-29 human carcinoma (antigen-positive tumour). Nature of the series: Bio-distribution of a protein-bonded Tc-99m complex in hairless mice: antigen-positive HT-29 tumour. In kind it is in vivo, human carcinoma in immune-deficient hairless mice. As to the method:
(§1) The monoclonal antibody 17-1A was obtained by methods known in the literature, after application of 10^7 of the corresponding hybridoma cells to the abdominal cavity of a Balb/c-mouse and suction of the ascites fluid after 7-10 days. Purification was brough about likewise by methods known in the literature, by ammonium sulphate precipitation and affinity chromatography over protein A-sepharose. The purified antibody (10 mg/ml) was treated with 25 μg/ml pepsin at pH 3.5 for 2 hours and then isolated by FPLC. Before coupling to the chelating agent, the fragments were dialysed against 0.1M KH2 PO4 /0.1M NaHCO3, pH 8.5, at 4° C. for 12-24 hours. The protein concentration was adjusted to 10 mg/ml. A 5-fold molar excess of the NCS-containing chelating agent [Example 1] was dissolved in a minimum amount of the same buffer and added to the protein solution. […]
(§2) The bio-distribution of protein-bonded chelates will be described, using a conjugate of F(ab)2 fragments of the monoclonal antibody 17-1A and the compound [7] prepared in Example 1 as a model. […] The immune reactivity of the conjugates was 70-80% as determined by bonding to an excess of antigen in the cell. The bio-distribution 24 hours after administration of the conjugate was determined by killing the animals, removing the organs and measuring the radioactivity therein.

Series [2] relates to antigen expressed from the human carcinoma cell line "HT-29". Briefly: Immune reactivity of the conjugates by bonding to an excess of antigen in the cell. In kind it is binding. Particulars: after gel filtration on PD 10. As to the method: (§3) The bio-distribution of protein-bonded chelates will be described, using a conjugate of F(ab)2 fragments of the monoclonal antibody 17-1A and the compound [7] prepared in Example 1 as a model. The antibody from which the fragments were obtained recognise an antigen expressed from the human carcinoma cell line "HT-29". […] Isolated cells from both lines were subcutaneously administered to immune-deficient hairless mice. After the tumours had grown to a size of 300-800 mg, the mice were intravenously given 20 μg of the chelate conjugate [Example 17] labelled with 200 μCi. The conjugates were first freed from low-molecular constituents by gel filtration on PD 10 columns manufactured by Messrs. Bio-Rad. The immune reactivity of the conjugates was 70-80% as determined by bonding to an excess of antigen in the cell. The bio-distribution 24 hours after administration of the conjugate was determined by killing the animals, removing the organs and measuring the radioactivity therein.
(Size exclusion chromatography separates by hydrodynamic size, large species first.)

Series [3] can be described thus: Bio-distribution of a protein-bonded Tc-99m complex in tumour-bearing hairless mice: organs. The format is in vivo, immune-deficient hairless mice. Particulars: 24 hours after i.v. 20 μg conjugate labelled with 200 μCi. The procedure:
The monoclonal antibody 17-1A was obtained by methods known in the literature, after application of 10^7 of the corresponding hybridoma cells to the abdominal cavity of a Balb/c-mouse and suction of the ascites fluid after 7-10 days. Purification was brough about likewise by methods known in the literature, by ammonium sulphate precipitation and affinity chromatography over protein A-sepharose. The purified antibody (10 mg/ml) was treated with 25 μg/ml pepsin at pH 3.5 for 2 hours and then isolated by FPLC. Before coupling to the chelating agent, the fragments were dialysed against 0.1M KH2 PO4 /0.1M NaHCO3, pH 8.5, at 4° C. for 12-24 hours. The protein concentration was adjusted to 10 mg/ml. A 5-fold molar excess of the NCS-containing chelating agent [Example 1] was dissolved in a minimum amount of the same buffer and added to the protein solution. In order to form the conjugate, the mixture was incubated at 37° C. for 3 hours. Next, the conjugate was dialysed 24-48 hours against PBS (phosphate-buffered saline) with repeated change of buffer, and the protein concentration was re-adjusted to 10 mg/ml when necessary. Before labelling with Tc-99m, the conjugate could be kept in acid-cleaned glass vessels after sterile filtration at 4° C.
1 mg of the antibody fragment coupled to the chelating agent was labelled with TC-99m by adding 10 mCi pertechnetate solution (=1-2 ml) and 100 μg tin-II chloride in a solution of Na pyrophosphate (1 mg/ml) scavenged with argon or by ligand exchange e.g. by mixing the solution with a commercially obtainable glucoheptonate kit to which pertechnetate had been added.
as §3

Series [4] concerns MX-1 human carcinoma (control, antigen not expressed). Briefly: Bio-distribution of a protein-bonded Tc-99m complex in hairless mice: antigen-negative MX-1 control tumour. Particulars: MX-1 tumour (300-800 mg); 24 hours after i.v. 20 μg conjugate labelled with 200 μCi. In kind it is in vivo, human carcinoma in immune-deficient hairless mice. The procedure:
as §1, §2

B1: conjugate of F(ab)2 fragments of the monoclonal antibody 17-1A and the compound [7]: conjugate of F(ab)2 fragments of the monoclonal antibody 17-1A and the compound [7] prepared in Example 1, … (conjugate, chains of the INN, looked up)
VH: QVQLQQSGAELVRPGTSVKVSCKASGYAFTNYLIEWVKQRPGQGLEWIGVINPGSGGTNYNEKFKGKATLTADKSSSTAYMQLSSLTSDDSAVYFCARDGPWFAYWGQGTLVTVSA
VL: NIVMTQSPKSMSMSVGERVTLTCKASENVVTYVSWYQQKPEQSPKLLIYGASNRYTGVPDRFTGSGSATDFTLTISSVQAEDLADYHCGQGYSYPYTFGGGTKLEIK
modifications: F(ab')2 chelate compound [7], Tc-99m label
With B1, the “concentration of the chelate in the antigen-positive tumour” value in series [1] (24 hours after i.v. administration) is on record as “marked concentration of the chelate in the antigen-positive tumour”. For the same molecule, the “% of applied dose per gram of tissue, HT29” value in series [1] (HT29 tumour (300-800 mg), 24 hours after i.v. 20 μg conjugate labelled with 200 μCi) was 12.1 % of applied dose per gram of tissue. In addition, the “immune reactivity of the conjugates” value in series [2] is on record as 70-80%. Besides, the “% of applied dose per gram of tissue, Blood” value in series [3] (blood) is given as 0.6 % of applied dose per gram of tissue. Moreover, the “% of applied dose per gram of tissue, Kidneys” value in series [3] (kidneys) was 2.8 % of applied dose per gram of tissue. In series [3] (liver), the “% of applied dose per gram of tissue, Liver” value is given as 1.2 % of applied dose per gram of tissue. In addition, in series [3] (lung), the “% of applied dose per gram of tissue, Lung” value is reported as 0.8 % of applied dose per gram of tissue. For the same molecule, the “% of applied dose per gram of tissue, Muscle” value in series [3] (muscle) is 0.1 % of applied dose per gram of tissue. Further, in series [3] (spleen), the “% of applied dose per gram of tissue, Spleen” value is listed as 0.3 % of applied dose per gram of tissue. In addition, the “% of applied dose per gram of tissue, MX-1” value in series [4] was 1.8 % of applied dose per gram of tissue.

For the origin of these results see patent US5302370A, “Chelating agents for forming complexes with radioactive isotopes, metal complexes thereof and use thereof in diagnosis and therapy” (Institut fur Diagnostikforschung GmbH, priority 1989, dated 1994).
